In IntAct's records for PubMed 16316992:

What follows are substances tested against magi3_human MAGI3 (UniProt Q5TCQ9).
Chain of magi3_human MAGI3 (Q5TCQ9 whole entry): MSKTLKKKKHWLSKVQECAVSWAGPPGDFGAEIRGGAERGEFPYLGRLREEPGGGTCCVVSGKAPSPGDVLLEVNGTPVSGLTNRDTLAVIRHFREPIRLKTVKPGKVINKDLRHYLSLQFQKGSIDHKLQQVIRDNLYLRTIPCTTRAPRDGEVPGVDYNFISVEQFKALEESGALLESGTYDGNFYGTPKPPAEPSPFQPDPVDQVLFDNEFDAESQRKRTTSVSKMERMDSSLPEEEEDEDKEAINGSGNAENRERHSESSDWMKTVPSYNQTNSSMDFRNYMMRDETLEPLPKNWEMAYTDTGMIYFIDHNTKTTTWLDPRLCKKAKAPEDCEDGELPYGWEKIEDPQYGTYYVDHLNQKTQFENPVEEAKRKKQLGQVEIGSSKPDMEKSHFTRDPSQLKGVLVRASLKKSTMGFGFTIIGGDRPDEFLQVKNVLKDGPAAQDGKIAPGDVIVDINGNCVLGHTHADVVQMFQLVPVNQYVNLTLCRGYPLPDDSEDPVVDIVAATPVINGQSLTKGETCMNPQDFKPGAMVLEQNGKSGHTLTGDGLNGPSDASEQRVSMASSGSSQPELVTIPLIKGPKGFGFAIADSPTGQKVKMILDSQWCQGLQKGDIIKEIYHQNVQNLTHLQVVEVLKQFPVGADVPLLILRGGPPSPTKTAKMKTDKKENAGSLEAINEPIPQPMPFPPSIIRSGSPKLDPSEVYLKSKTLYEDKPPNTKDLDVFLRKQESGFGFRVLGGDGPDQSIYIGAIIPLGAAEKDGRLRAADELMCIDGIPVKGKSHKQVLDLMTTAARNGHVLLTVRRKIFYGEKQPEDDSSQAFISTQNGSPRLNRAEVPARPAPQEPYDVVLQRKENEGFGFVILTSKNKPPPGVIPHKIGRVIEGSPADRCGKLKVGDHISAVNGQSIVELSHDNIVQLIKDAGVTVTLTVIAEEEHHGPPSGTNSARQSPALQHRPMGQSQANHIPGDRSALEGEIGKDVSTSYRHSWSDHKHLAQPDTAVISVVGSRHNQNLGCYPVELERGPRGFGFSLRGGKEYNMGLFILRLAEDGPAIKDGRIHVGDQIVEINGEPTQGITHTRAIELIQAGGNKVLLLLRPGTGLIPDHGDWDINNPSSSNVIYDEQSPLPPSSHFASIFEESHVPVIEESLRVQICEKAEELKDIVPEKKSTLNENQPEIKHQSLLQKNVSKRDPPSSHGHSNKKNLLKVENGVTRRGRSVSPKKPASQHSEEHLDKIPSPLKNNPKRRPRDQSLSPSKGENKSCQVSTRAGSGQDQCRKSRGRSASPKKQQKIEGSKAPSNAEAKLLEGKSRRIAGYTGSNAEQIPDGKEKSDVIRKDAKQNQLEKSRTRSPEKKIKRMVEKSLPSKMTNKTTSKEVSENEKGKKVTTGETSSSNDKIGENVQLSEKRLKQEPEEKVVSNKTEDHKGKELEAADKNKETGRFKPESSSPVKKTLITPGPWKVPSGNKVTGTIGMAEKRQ

Chain of Beta-1 adrenergic receptor (Homo sapiens), P08588 V477L (P08588 whole entry V477L): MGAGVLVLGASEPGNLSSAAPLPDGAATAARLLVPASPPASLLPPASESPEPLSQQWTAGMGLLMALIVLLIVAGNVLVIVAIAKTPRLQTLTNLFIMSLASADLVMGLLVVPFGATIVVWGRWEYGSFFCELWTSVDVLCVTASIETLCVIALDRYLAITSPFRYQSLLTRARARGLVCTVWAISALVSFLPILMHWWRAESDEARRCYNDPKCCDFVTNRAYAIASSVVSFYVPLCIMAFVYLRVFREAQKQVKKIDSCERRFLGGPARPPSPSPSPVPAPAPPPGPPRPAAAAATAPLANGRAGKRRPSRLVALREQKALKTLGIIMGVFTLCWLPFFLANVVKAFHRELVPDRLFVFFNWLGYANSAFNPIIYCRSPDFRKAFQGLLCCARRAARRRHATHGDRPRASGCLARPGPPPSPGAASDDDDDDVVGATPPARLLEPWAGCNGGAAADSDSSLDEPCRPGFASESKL
Chain of Beta-1 adrenergic receptor (Homo sapiens), P08588 K476R (P08588 whole entry K476R): as the sequence (P08588 whole entry V477L) above, with K476R, L477V counted along it
Chain of Beta-1 adrenergic receptor (Homo sapiens), P08588 V477M (P08588 whole entry V477M): as the sequence (P08588 whole entry V477L) above, with L477M counted along it
Chain of Beta-1 adrenergic receptor (Homo sapiens), P08588 E474T (P08588 whole entry E474T): as the sequence (P08588 whole entry V477L) above, with E474T, L477V counted along it
Chain of Beta-1 adrenergic receptor (Homo sapiens), P08588 V477A (P08588 whole entry V477A): as the sequence (P08588 whole entry V477L) above, with L477A counted along it
Chain of Beta-1 adrenergic receptor (Homo sapiens), P08588 S475A (P08588 whole entry S475A): as the sequence (P08588 whole entry V477L) above, with S475A, L477V counted along it
Chain of Beta-1 adrenergic receptor (Homo sapiens), P08588 V477I (P08588 whole entry V477I): as the sequence (P08588 whole entry V477L) above, with L477I counted along it
Chain of Beta-1 adrenergic receptor (Homo sapiens), P08588 E474A (P08588 whole entry E474A): as the sequence (P08588 whole entry V477L) above, with E474A, L477V counted along it

Q: How did the “effect of a mutation on the interaction” value turn out when “Beta-1 adrenergic receptor (Homo sapiens), P08588 V477A” was run?
A: decreasing interaction

Q: For “Beta-1 adrenergic receptor (Homo sapiens), P08588 K476R”, which “effect of a mutation on the interaction” value is on record?
A: decreasing interaction

Q: For “Beta-1 adrenergic receptor (Homo sapiens), P08588 E474T”, which “effect of a mutation on the interaction” value is on record?
A: decreasing interaction

Q: “Beta-1 adrenergic receptor (Homo sapiens), P08588 S475A” was tested. Which “effect of a mutation on the interaction” value did it give?
A: decreasing interaction

Q: How did the “effect of a mutation on the interaction” value turn out when “Beta-1 adrenergic receptor (Homo sapiens), P08588 E474A” was run?
A: decreasing interaction

Biological target: magi3_human MAGI3 (UniProt Q5TCQ9)
Remark: another data set of the same source

Q: With “Beta-1 adrenergic receptor (Homo sapiens), P08588 V477I” as the substance, how does the “effect of a mutation on the interaction” value read?
A: decreasing interaction

Q: “Beta-1 adrenergic receptor (Homo sapiens), P08588 V477M” was tested. Which “effect of a mutation on the interaction” value did it give?
A: decreasing interaction

Q: How did the “effect of a mutation on the interaction” value turn out when “Beta-1 adrenergic receptor (Homo sapiens), P08588 V477L” was run?
A: decreasing interaction
